According to US20250282851A1:

Columns and labels:
[1] = biological target: purified truncated Gn protein of Rift Valley fever virus (Rift Valley fever virus); test: ELISA, truncated Gn coated at 2 ug/mL, 50 uL 293T expression supernatant
[2] = biological target: purified truncated Gn protein of Rift Valley fever virus (Rift Valley fever virus)
[3] = biological target: Gn protein of Rift Valley fever virus (Rift Valley fever virus)

B1: monoclonal antibody A38 (antibody, V domains shown)
VH: VQLVQELGPGLVKPSETLSLTCAVSGYSISSPYSWGWIRQPPGKGLEWIGGVYSSGEIRHLDPSLKSRVTLSLDTSKNQFSLKLNSVTAADTAVYFCASANGGVAQDAFDFWGQGLRVTVSS
VL: QPVLTQPPSLSAPPGASARLPCTLSSDLSVTSLNIYWYQQKSGSAPRLFLYYYSDSDKQLGPGVPSRVSGSKETSSNTALLFISGLQPEDEADYYCQVYDSSAYVLFGGGTRLTVLG
OD value (OD450 nm-OD630 nm) [1]: 1.4 OD
EC50 [2]: 4.51 ng/mL
Kd [3]: 0.972 nM
koff [3]: 0.00013 s⁻¹
kon [3]: 133000 M⁻¹ s⁻¹
